Measurements published in PMC7617353, “Molecular basis of FIGNL1 in dissociating RAD51 from DNA and chromatin” (Science (New York, N.Y.), 2024).
Changes are numbered by the printed parent chain. Numbers in names are those of the source.

T1: RAD51 (human, UniProt Q06609 1-339, cysteine reactive RED-MALEIMIDE label (only in the MST with labelled RAD51))
T1 chain: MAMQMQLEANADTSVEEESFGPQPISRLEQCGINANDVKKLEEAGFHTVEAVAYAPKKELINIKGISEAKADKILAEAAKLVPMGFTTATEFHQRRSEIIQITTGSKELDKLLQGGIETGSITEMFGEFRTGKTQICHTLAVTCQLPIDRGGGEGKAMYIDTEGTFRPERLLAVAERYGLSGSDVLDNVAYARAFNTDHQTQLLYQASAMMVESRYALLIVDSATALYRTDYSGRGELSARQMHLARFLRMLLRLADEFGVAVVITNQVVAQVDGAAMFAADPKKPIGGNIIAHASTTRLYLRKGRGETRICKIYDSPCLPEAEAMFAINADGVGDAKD

T2: FIGNL1ΔN (human FIGNL1 residues 287-674) (human, UniProt Q6PIW4 287-674)
T2 construct: Monomer by SEC-MALLS after purification; hexamer with ATPγS by cryo-EM; source: E. coli BL21(DE3), purified (HisTrap, StrepTrap, SEC Superdex 200 increase)
T2 sequence (looked up): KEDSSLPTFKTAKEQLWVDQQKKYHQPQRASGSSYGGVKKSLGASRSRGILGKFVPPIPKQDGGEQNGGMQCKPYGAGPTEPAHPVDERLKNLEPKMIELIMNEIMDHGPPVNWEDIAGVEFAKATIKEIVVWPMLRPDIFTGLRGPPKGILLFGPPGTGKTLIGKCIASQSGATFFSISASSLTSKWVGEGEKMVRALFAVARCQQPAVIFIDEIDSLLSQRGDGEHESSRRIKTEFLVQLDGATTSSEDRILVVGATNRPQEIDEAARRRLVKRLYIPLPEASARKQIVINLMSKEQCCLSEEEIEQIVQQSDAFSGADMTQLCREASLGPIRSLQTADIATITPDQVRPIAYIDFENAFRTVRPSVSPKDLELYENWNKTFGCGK

T3: FIGNL1ΔN(E501Q) (human, UniProt Q6PIW4 287-674, E501Q)
T3 sequence: T2 sequence (looked up) with E215Q

T4: FIGNL1ΔN with an N-terminal YBBR-tag, labelled (human, UniProt Q6PIW4 287-674, labelled as previously described (refs 59, 60))
T4 chain: T2 sequence (looked up)

T5: FIGNL1ΔN pore loop 1 mutant (K473E,W474A) (human, UniProt Q6PIW4 287-674, K473E | W474A)
T5 sequence: T2 sequence (looked up) with K187E, W188A

T6: FIGNL1ΔN pore loop 1 mutant (K473E,W474A) (human, UniProt Q6PIW4 287-674, K473E | W474A)
T6 construct: also called PL mutant; source: E. coli BL21(DE3), purified as the wild type (HisTrap, StrepTrap, SEC)
T6 sequence (looked up): T2 sequence (looked up) with K187E, W188A

T7: FIGNL1ΔN with an N-terminal YBBR-tag, labelled (human, UniProt Q6PIW4 287-674, labelled as previously described (refs 59, 60))
T7 sequence (looked up): T2 sequence (looked up)

B1: FIGNL1ΔN (human FIGNL1 residues 287-674) (domain or fragment)
chain: T2 sequence (looked up)
B2: FIGNL1ΔN(E501Q) (domain or fragment, human, UniProt Q6PIW4 287-674, looked up)
chain: T2 sequence (looked up) with E215Q
notes: Six copies in the cryo-EM hexamer with ATP.Mg2+ and RAD51; also called E501Q mutant; source: E. coli BL21(DE3), purified as the wild type (HisTrap, StrepTrap, SEC)
B3: RAD51 (natural protein, human, UniProt Q06609 1-339, looked up)
chain: T1 chain
modifications: cysteine reactive RED-MALEIMIDE label (only in the MST with labelled RAD51)
notes: RAD51, expressed without tags; PDB 8R64 holds only residues 2-13 of it; also called RAD51 recombinase
B4: RAD51ΔN (RAD51 lacking the N-terminal 20 residues) (domain or fragment, human, UniProt Q06609 21-339, looked up)
chain: GPQPISRLEQCGINANDVKKLEEAGFHTVEAVAYAPKKELINIKGISEAKADKILAEAAKLVPMGFTTATEFHQRRSEIIQITTGSKELDKLLQGGIETGSITEMFGEFRTGKTQICHTLAVTCQLPIDRGGGEGKAMYIDTEGTFRPERLLAVAERYGLSGSDVLDNVAYARAFNTDHQTQLLYQASAMMVESRYALLIVDSATALYRTDYSGRGELSARQMHLARFLRMLLRLADEFGVAVVITNQVVAQVDGAAMFAADPKKPIGGNIIAHASTTRLYLRKGRGETRICKIYDSPCLPEAEAMFAINADGVGDAKD
notes: RAD51 lacking the N-terminal 20 residues; also called RAD51 with N-terminal 20 a.a. deleted

How the values were obtained:
RAD51 [1] = target: T1, RAD51; test: MST
[2] = target: T2, FIGNL1ΔN (human FIGNL1 residues 287-674); test: cryo-EM structure; 5µM FIGNL1ΔN with 1mM ATPγS and 5mM MgCl2, 15 minutes at 37°C in EM buffer; planar hexamer, 9.2Å map
RAD51 [3] = target: B3; test: cryo-EM structure; 10μM FIGNL1ΔN(E501Q) with 10μM RAD51, 1mM ATP, 5mM MgCl2, 20 mM Tris-HCl pH 8.0, 100 mM NaCl, 10 minutes at 37°C; whole complex ~8 Å, focused hexamer with RAD51 N-terminus 2.9 Å; conditions: both partners purified
[4] = target: the molecule itself; test: as above
FIGNL1ΔN(E501Q) [5] = target: T3, FIGNL1ΔN(E501Q); test: MST
[6] = target: T4, FIGNL1ΔN with an N-terminal YBBR-tag, …; test: MST
[7] = target: T5, FIGNL1ΔN pore loop 1 mutant …; test: MST
[8] = target: T2, FIGNL1ΔN (human FIGNL1 residues 287-674); test: MST; 100nM RED-MALEIMIDE labelled RAD51 with a serial dilution of FIGNL1ΔN (and mutants); 20mM Tris pH 8.0, 100mM NaCl, 1mM ATP, 5mM MgCl2, 0.05% TWEEN-20; 25°C; conditions: both partners purified
FIGNL1ΔN(E501Q) [9] = target: B2; test: as above; conditions: both partners purified
[10] = target: T6, FIGNL1ΔN pore loop 1 mutant …; test: as above; conditions: both partners purified
[11] = target: T7, FIGNL1ΔN with an N-terminal YBBR-tag, …; test: MST; 100nM FIGNL1ΔN labelled at an N-terminal YBBR-tag with a serial dilution of RAD51 and RAD51ΔN; measured as in the labelled RAD51 experiments; conditions: both partners purified

Binder: B1
- Kd (RAD51 [1]): 328 nM
- stoichiometry N [2]: 6

Binder: B2
- stoichiometry N (RAD51 [3]): 2 RAD51 monomers per FIGNL1 hexamer
- stoichiometry N [4]: 6

Binder: B3
- Kd (FIGNL1ΔN(E501Q) [5]): 279 nM
- Kd [6]: 109 nM
- Kd [7]: 340 nM
- binding result [8]: binds
- binding result (FIGNL1ΔN(E501Q) [9]): binds
- binding result [10]: binds

Binder: B4
- Kd [6]: 315 nM
- binding result [11]: binds
